This note sets out measurements from publication PMC6477676, “Staufen2-mediated RNA recognition and localization requires combinatorial action of multiple domains”.

Series [1] concerns the target T1, mStau2 dsRBD1 (Mus musculus, UniProt Q8CJ67 8-75).
T1 sequence: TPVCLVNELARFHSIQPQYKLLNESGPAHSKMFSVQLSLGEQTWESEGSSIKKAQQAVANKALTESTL
Kind of series: SPR; up to 1 uM; SPR: HBS-EP (10 mM HEPES pH 7.4, 150 mM NaCl, 3 mM EDTA, 0.005% P20); EMSA: 5 nM RNA, protein buffer (40 mM Bis-Tris pH 7, 150 mM NaCl, 2 mM DTT presumed), 4% glycerol, 30 ug/mL yeast tRNA, RT; NMR: 150 mM NaCl, 20 mM Na phosphate pH 7.0, 5 mM DTT, 298 K. As to conditions: protein: recombinant; label: 5' 32P (EMSA); biotin (SPR); imperfect hairpin, 26 bp with two bulges. For orientation: Surface plasmon resonance follows binding to a sensor surface in real time, without labels.

Series [2] concerns the target T2, mStau2 full-length (Mus musculus, UniProt Q8CJ67 1-570).
T2 sequence: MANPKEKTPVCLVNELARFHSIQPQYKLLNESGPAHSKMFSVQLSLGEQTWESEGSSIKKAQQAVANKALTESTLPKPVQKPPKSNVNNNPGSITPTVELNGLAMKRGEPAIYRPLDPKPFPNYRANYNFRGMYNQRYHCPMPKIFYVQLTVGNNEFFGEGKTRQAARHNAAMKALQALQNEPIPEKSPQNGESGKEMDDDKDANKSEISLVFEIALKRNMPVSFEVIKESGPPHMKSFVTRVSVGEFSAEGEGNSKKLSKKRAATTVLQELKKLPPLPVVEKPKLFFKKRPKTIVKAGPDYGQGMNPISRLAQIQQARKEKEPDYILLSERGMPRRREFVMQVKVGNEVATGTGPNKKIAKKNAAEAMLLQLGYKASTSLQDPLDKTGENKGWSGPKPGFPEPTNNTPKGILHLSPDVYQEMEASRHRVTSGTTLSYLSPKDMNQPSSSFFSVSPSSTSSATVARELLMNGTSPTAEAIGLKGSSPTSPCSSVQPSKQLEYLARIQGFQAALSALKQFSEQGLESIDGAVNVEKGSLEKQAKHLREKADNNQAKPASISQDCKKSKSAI
In words: EMSA; stated as 100 nM range; SPR: HBS-EP (10 mM HEPES pH 7.4, 150 mM NaCl, 3 mM EDTA, 0.005% P20); EMSA: 5 nM RNA, protein buffer (40 mM Bis-Tris pH 7, 150 mM NaCl, 2 mM DTT presumed), 4% glycerol, 30 ug/mL yeast tRNA, RT; NMR: 150 mM NaCl, 20 mM Na phosphate pH 7.0, 5 mM DTT, 298 K. As to conditions: protein: recombinant; tags: HisSUMO; label: 5' 32P (EMSA); biotin (SPR); imperfect hairpin, 26 bp with two bulges. (In EMSA bound probe runs differently from free probe, usually more slowly.)

In series [3] the target is T3, mStau2 dsRBD1-2 K59A (Mus musculus, UniProt Q8CJ67 8-181, K59A).
T3 sequence: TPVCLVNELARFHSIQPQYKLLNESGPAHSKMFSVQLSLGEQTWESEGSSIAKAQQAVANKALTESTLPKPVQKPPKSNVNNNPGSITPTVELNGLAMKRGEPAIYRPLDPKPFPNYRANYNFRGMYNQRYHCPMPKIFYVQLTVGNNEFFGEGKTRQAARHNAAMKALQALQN
In words: SPR; Hill n 1.2; SPR: HBS-EP (10 mM HEPES pH 7.4, 150 mM NaCl, 3 mM EDTA, 0.005% P20); EMSA: 5 nM RNA, protein buffer (40 mM Bis-Tris pH 7, 150 mM NaCl, 2 mM DTT presumed), 4% glycerol, 30 ug/mL yeast tRNA, RT; NMR: 150 mM NaCl, 20 mM Na phosphate pH 7.0, 5 mM DTT, 298 K. As to conditions: protein: recombinant; label: 5' 32P (EMSA); biotin (SPR); hairpin, 18 bp stem.

For series [4], the target named is T4, mStau2 dsRBD1-4 (Mus musculus, UniProt Q8CJ67 8-375).
T4 sequence: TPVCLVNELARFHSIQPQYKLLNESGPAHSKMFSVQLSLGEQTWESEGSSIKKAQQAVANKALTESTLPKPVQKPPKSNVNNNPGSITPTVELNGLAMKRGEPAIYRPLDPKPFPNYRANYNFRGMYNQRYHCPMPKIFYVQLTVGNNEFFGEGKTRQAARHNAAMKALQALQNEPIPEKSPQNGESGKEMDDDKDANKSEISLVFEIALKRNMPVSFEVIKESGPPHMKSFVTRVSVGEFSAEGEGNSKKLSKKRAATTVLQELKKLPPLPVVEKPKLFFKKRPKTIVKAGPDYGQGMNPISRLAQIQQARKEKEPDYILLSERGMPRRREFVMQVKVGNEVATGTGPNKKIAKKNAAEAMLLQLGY
Kind of series: SPR; Hill n 1.6; text says 357 nM; SPR: HBS-EP (10 mM HEPES pH 7.4, 150 mM NaCl, 3 mM EDTA, 0.005% P20); EMSA: 5 nM RNA, protein buffer (40 mM Bis-Tris pH 7, 150 mM NaCl, 2 mM DTT presumed), 4% glycerol, 30 ug/mL yeast tRNA, RT; NMR: 150 mM NaCl, 20 mM Na phosphate pH 7.0, 5 mM DTT, 298 K. As to conditions: protein: recombinant; tags: HisSUMO removed; label: 5' 32P (EMSA); biotin (SPR); hairpin, 18 bp stem.

B1: SRS* (SRS3) (structured_RNA)
RNA: GGUAUGUGUGAAUGUGCAUGAAUAUAUAUAUAUAUGCAUAUAUAUAUUUGUAUAUGUUCACACAUG
Regarding B1, in series [1], the binding result is “no binding”. Further, the Kd – broadly, a measure of binding affinity in units of concentration – in series [2] is ~100 nM.
Turning to GGUAUAUACAUGCACAUGCAAUUUGUGUAUGUGUAUGUAUAUA (structured_RNA) [SRS2+5], the Kd in series [3] was found to be 509 ± 136 nM; in series [4], 330 ± 148 nM.
